From patent US20180142032A1 (Sanofi, published 2018)
Values joined by “and” are separate entries in the source; they are usually repeats but may differ in a detail not shown here. Equal entries are not always repeated.

How the values were obtained:
[1] = biological target: T1, human LAMP1 at the cell surface (human, UniProt P11279 29-417); assay: cell-based or functional assay
T1 sequence: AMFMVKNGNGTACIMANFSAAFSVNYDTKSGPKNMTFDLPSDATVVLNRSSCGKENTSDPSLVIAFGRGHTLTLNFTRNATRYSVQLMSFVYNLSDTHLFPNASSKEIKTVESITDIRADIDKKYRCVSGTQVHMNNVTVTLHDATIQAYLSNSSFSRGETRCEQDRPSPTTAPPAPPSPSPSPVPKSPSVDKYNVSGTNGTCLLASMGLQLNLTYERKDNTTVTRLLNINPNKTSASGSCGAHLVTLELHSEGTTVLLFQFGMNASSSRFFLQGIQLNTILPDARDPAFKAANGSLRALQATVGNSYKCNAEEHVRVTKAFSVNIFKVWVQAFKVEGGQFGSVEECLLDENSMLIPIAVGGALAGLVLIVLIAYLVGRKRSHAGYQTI

[2] = biological target: T1, human LAMP1 at the cell surface; assay: cell-based or functional assay; remark: listed apart in the source
[3] = biological target: T1, human LAMP1 at the cell surface; assay: flow cytometry, HCT116 huLAMP1 clone 8
Experimental: (§1) HCT116 cells were infected by a lentiviral vector allowing stable integration of the human or the cynomolgus LAMP1 CDS in genomic DNA of cells. Individual clones with different densities of human or cynomolgus LAMP1 cell surface localization were derived from a pool of HCT116 infected cells. […] 100 μL/well of goat anti-human IgG conjugated with Alexa488 (Invitrogen; # A11013) was added for 1 h at 4° C. and washed two times with PBS 1% BSA. The antibody binding was evaluated after centrifugation and resuspension of cells in 100 μl fixing solution (paraformaldehyde at 4% in PBS). Samples were read using Galaxy® Flow Cytometry System (Partec). EC50 values were estimated using BIOST@T-SPEED software.

[4] = biological target: T1, human LAMP1 at the cell surface; assay: flow cytometry, HCT116 stable clones; human LAMP1 on recombinant HCT116 stable clones
Experimental: as §1

[5] = biological target: T1, human LAMP1 at the cell surface; assay: flow cytometry, dissociated CR-IGR-034P colon PDX cells; CR-IGR-034P colon tumor cells
Experimental: Advanced human primary colon tumor CR-IGR-034P was obtained from Patient-derived xenograft in mice. Tumor CR-IGR-034P was enzymatically dissociated using collagenase Type IV (Invitrogen; #17104-019) and deoxyribonuclease I (Invitrogen; #18047-019) for 1 h at 4° C. Cell viability was estimated by Viacount application using Guava® easyCyte™ 8HT Flow Cytometry System. […] 100 μL/well of goat anti-mouse IgG conjugated with Alexa647 (Invitrogen; # A2135) or goat anti-human IgG conjugated with Alexa488 (Invitrogen; # A11013) was added for 45 min at 4° C. and washed three times with PBS 1% BSA. The antibody binding was evaluated after centrifugation and resuspension of cells by adding 200 μl/well PBS 1% BSA and read using Guava® easyCyte™ 8HT Flow Cytometry System. EC50 values were estimated using BIOST@T-SPEED software.

[6] = biological target: T1, human LAMP1 at the cell surface; assay: flow cytometry, HCT116 stable clones
Experimental: (§2) 100 μL/well of goat anti-mouse IgG conjugated with Alexa647 (Invitrogen; # A2135) was added for 45 min at 4° C. and washed three times with PBS 1% BSA. The antibody binding was evaluated after centrifugation and re-suspension of cells by adding 200 μl/well PBS 1% BSA and read using Guava® easyCyte™ 8HT Flow Cytometry System. EC50 values were estimated using BIOST@T-SPEED software.

[7] = biological target: T2, cynomolgus monkey LAMP1 at the cell surface (cynomolgus monkey, UniProt P11279 29-417 (human entry)); assay: flow cytometry, HCT116 stable clones
T2 construct: also called cynoLAMP1; cynomolgus LAMP1
T2 chain: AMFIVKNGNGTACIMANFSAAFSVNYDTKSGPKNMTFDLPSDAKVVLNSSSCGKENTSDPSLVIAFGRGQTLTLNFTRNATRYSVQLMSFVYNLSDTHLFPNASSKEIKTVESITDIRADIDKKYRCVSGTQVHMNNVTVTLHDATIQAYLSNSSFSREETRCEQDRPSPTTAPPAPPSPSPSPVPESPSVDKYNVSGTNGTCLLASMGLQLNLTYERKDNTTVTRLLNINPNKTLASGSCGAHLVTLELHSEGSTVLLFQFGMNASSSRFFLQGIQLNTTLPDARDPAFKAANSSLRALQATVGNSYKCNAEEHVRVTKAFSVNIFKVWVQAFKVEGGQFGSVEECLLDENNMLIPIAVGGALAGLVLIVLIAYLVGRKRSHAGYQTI
Experimental: as §2

[8] = biological target: T1, human LAMP1 at the cell surface; assay: flow cytometry, HCT116 stable clone
Description: HCT116 stable clone was obtained as described above. HEK293 cells were infected by a lentiviral vector allowing stable integration of the human or the cynomolgus LAMP1 CDS in genomic DNA of cells. Individual clones with different densities of cynomolgus LAMP1 cell surface localization were derived from a pool of HEK293 infected cells. Protocol as described in example above. EC₅₀ values were estimated using BIOST@T-SPEED software.

B1: huMAb1_1 (antibody, human IgG1, kappa)
heavy: not shown
light: DIQMTQSPSSLSASVGDRVTITCKASQDIDRYMAWYQDKPGKAPRLLIHDTSTLQSGVPSRFSGSGSGRDYTLTISNLEPEDFATYYCLQYDNLWTFGGGTKVEIKRTVAAPSVFIFPPSDEQLKSGTASVVCLLNNFYPREAKVQWKVDNALQSGNSQESVTEQDSKDSTYSLSSTLTLSKADYEKHKVYACEVTHQGLSSPVTKSFNRGEC
notes: humanized, VH1-huIgG1 and VL1-huCk
With B1 the “ADCP EC50, 3/1, batch 67130713495” value [1] was 0.47 nM and 0.36 nM, the “ADCP EC50, 3/1, batch 67131354967” value [1] was 0.5 nM and the “ADCP EC50, 3/1, batch 67131617470” value [1] was 0.56 nM. For the same binder, the “ADCP EC50, 6/1, batch 67130713495” value [1] was 0.98 nM and 0.34 nM, the “ADCP EC50, macrophages/target 3/1, batch 67131617438” value [1] was 0.28 nM and the “ADCP Mean EC50, HCT116 huLAMP1 clone 4, antigen density 20 000” value [2] was 0.73 nM. The “ADCP Mean EC50, HCT116 huLAMP1 clone 5, antigen density 300 000” value [2] was 0.33 nM, the “ADCP Mean EC50, HCT116 huLAMP1 clone 8, antigen density 100 000” value [2] was 0.43 nM and the “ADCP Mean EC50, HCT116 huLAMP1 clone 12, antigen density 2500” value [2] was 0.65 nM. The EC50 [3] was 15 nM.

B2: MAb1 (antibody, mouse IgG2a, kappa)
heavy: QVQLQQSGAELVKPGASVKMSCKASGYIFTNYNIHWVKKSPGQGLEWIGAIYPGNGDAPYSQKFKDKATLTADKSSSTTYMQLSRLTSEDSAVYYCVRANWDVAFAYWGQGTLVSVSAAKTTAPSVYPLAPVCGDTTGSSVTLGCLVKGYFPEPVTLTWNSGSLSSGVHTFPAVLQSDLYTLSSSVTVTSSTWPSQSITCNVAHPASSTKVDKKIEPRGPTIKPCPPCKCPAPNLLGGPSVFIFPPKIKDVLMISLSPIVTCVVVDVSEDDPDVQISWFVNNVEVHTAQTQTHREDYNSTLRVVSALPIQHQDWMSGKEFKCKVNNKDLPAPIERTISKPKGSVRAPQVYVLPPPEEEMTKKQVTLTCMVTDFMPEDIYVEWTNNGKTELNYKNTEPVLDSDGSYFMYSKLRVEKKNWVERNSYSCSVVHEGLHNHHTTKSFSRTPGK
light: DIQMTQSPPSLSASLGGKVTITCKASQDIDRYMAWYQDKPGKGPRLLIHDTSTLQPGIPSRFSGSGSGRDYSFSISNLEPEDIATYYCLQYDNLWTFGGGTKLEIKRADAAPTVSIFPPSSEQLTSGGASVVCFLNNFYPKDINVKWKIDGSERQNGVLNSWTDQDSKDSTYSMSSTLTLTKDEYERHNSYTCEATHKTSTSPIVKSFNRNEC
notes: murine monoclonal IgG, kappa, from hybridoma; also called murine MAb1
Work on B2 yielded an EC50 [4] of 4.9 nM and an EC50 [5] of 5 nM.

B3: MAb2 (antibody, mouse IgG1, kappa)
heavy: QVQLQQSAAELARPGASVKMSCKASGYTFTSYTMHWVKQRPGQGLEWIGYFNPSSGYPEYNQKFKDKTTLTADKSSNTAFIQLNSLTSEDSAVYYCSRGYYYGSRGYALDFWGQGASVTVSSAKTTPPSVYPLAPGSAAQTNSMVTLGCLVKGYFPEPVTVTWNSGSLSSGVHTFPAVLQSDLYTLSSSVTVPSSTWPSETVTCNVAHPASSTKVDKKIVPRDCGCKPCICTVPEVSSVFIFPPKPKDVLTITLTPKVTCVVVDISKDDPEVQFSWFVDDVEVHTAQTQPREEQFNSTFRSVSELPIMHQDWLNGKEFKCRVNSAAFPAPIEKTISKTKGRPKAPQVYTIPPPKEQMAKDKVSLTCMITDFFPEDITVEWQWNGQPAENYKNTQPIMDTDGSYFVYSKLNVQKSNWEAGNTFTCSVLHEGLHNHHTEKSLSHSPGK
light: NIVLTQSPVSLAVSLGQRATISCRASESVDINGNTFMHWYQQKPGQSPKLVIYAASNIESGVPARFSGSGSSTDFTFTIDPVEADDVATYYCQQNIEDPWTFGGGTKVEIKRADAAPTVSIFPPSSEQLTSGGASVVCFLNNFYPKDINVKWKIDGSERQNGVLNSWTDQDSKDSTYSMSSTLTLTKDEYERHNSYTCEATHKTSTSPIVKSFNRNEC
notes: murine monoclonal IgG, kappa, from hybridoma; also called murine MAb2
Work on B3 yielded an EC50 [6] of 6.3 nM and an EC50 [7] of 6.6 nM.

B4: MAb3 (antibody, V domains shown)
VH: QIQLVQSGPELKKPGETVKISCKASGYIFTNYGMNWVKQAPGKGLKWMGWINTYTGESRYADDFKGRFALSLETSASTAYLQINNLENEDMATYFCAREDYYGNSPWFFDVWGAGTTVTVSS
VL: DIQMTQTTSSLSASLGDRVTISCNASQGINKYLNWYQQKPDGTVKLLIYYTSTLHSGVPSRFSGSGSGTDYSLTINNLEPEDIATYYCQQYTKLPFTFGSGTKLEIK
notes: murine monoclonal IgG, kappa, from hybridoma; also called murine MAb3
B4 gave an EC50 [8] of 7.6 nM.
